For two substances, LC3B-hAtg3^∆90-190 thioester intermediate formed, after 1 h, LC3B–PE conjugase activity compared to the wild type (in vitro conjugation assay) and LC3B-hAtg3 thioester intermediate formed, within 30 min results are on record in PMC7809043.

In the experiment the target is mouse Atg7 (mAtg7) (mouse) (UniProt Q9D906).
mouse Atg7 (mAtg7) (mouse), sequence (Q9D906 whole entry): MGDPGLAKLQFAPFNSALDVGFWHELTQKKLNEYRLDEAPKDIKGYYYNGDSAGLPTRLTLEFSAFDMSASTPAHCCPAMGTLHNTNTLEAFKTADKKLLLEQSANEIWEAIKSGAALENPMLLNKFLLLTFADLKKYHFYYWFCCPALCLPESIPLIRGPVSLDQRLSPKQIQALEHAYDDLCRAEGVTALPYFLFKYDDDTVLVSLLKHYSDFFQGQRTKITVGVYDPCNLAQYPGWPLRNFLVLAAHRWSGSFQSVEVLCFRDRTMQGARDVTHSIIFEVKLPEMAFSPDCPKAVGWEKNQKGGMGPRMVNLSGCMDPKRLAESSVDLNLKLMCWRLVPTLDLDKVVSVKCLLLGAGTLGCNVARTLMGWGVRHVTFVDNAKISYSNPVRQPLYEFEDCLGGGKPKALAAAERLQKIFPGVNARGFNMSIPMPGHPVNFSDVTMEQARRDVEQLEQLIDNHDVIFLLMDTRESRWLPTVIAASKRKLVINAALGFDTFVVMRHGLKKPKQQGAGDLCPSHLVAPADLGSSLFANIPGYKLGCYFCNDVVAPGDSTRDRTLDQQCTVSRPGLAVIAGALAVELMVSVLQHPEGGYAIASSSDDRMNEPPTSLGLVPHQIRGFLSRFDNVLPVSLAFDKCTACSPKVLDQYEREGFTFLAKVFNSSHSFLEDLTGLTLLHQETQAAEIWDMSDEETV

In turn, “hAtg3^∆90-190 (from UniProt Q9NT62 1-314) (enzyme)” registered an LC3B-hAtg3^∆90-190 thioester intermediate formed, after 1 h of 25% and an LC3B–PE conjugase activity compared to the wild type (in vitro conjugation assay) of 50%.

In turn, “human Atg3 (hAtg3), wild type (from UniProt Q9NT62 1-314) (enzyme)” came in with an LC3B-hAtg3 thioester intermediate formed, within 30 min of 70%.
